Experimental data: the RNAGym collection of RNA variant scans (doi:10.7554/elife.80360)

B1: HDV Ribozyme (parent)
chain: GGCCGGCAUGGUCCCAGCCUCCUCGCUGGCGCCGGCUGGGCAACAUUCCGAGGGGACCGUCCCCUCGGUAAUGGCGAAUGGGACCCA

Variants of: B1
Assay: self-cleavage, relative activity (ratio to wild type); higher = more cleavage; co-transcriptional

Variant	self-cleavage
C14U G74A	0.604
C14U G74C	0.369
C14U G35C	0.123
C14U G35U	0.288
C14U G55U	1.24
C14U C22A	0.339
C15A G17C	0.0978
C14U G81C	0.806
C14U C24U	0.658
C14U U72C	0.532
C14G A87C	0.793
C14G A87U	0.895
C14U C21U	0.237
C14U C21A	0
C14G C63U	0.9
C14G C63G	0.573
C15A G40A	0.77
C14A G67U	0.532
C14A G67A	0.435
C14G C49A	0.35
C14G C30A	0.0396
C14G U69C	0.519
C14G U20A	0
C14G U20C	0.0554

Variant	self-cleavage
C14U G29C	0.0941
C14U G29A	0.188
C14U C57A	1.07
C14U C15A	0.475
C15A C19A	0.147
C14U A16C	1.07
C14U A16U	1.09
C14U U47G	0.939
C14U U47C	1.13
C14U U27A	1.03
C14U U27G	1.11
C14U U27C	0.723
C14G G68A	0.431
C15A G67U	0.633
C14U C33G	0.123
C14U C33A	0.201
C15A G53C	0.674
C15A G53U	0.808
C14U A56U	1.22
C14U A56C	1.44
C15A A56C	0.782
C14G C21U	0.113
C14G C21A	0.0504
C14U G28A	0.0811

Variant	self-cleavage
C14U G28C	0.237
C14U C64A	0.939
C14U C64U	0.972
C14G G17C	0.0615
C15A G39C	0.107
C15A G39U	0.177
C14A G55U	0.73
C14U G52C	1.1
C14U G52A	0.973
C14U G34U	0.248
C14U G59U	0.997
C14U G59A	1.31
C14G A16G	0.554
C14U G54C	1.2
C14U G54A	1.04
C14A U46A	0.199
C14A U46C	0.237
C14A G76C	0.969
C14A G76A	0.718
C15A A51U	0.573
C15A A51C	1.14
C15A A51G	0.923
C15A C85A	0.623
C15A C85U	0.755

Variant	self-cleavage
C15A A78U	0.0639
C15A A78G	0.447
C15A G52A	0.708
C15A G52C	0.655
C14G C41U	0.462
C14G C41G	0.525
C14G U27A	0.7
C14G A56C	0.646
C14G C18G	0
C14G C75U	0.155
C14G C75G	0.0554
C14G C58U	0.646
C14U G31U	0.429
C14U G31C	0.342
C14A U20G	0
C15A G59C	0.723
C14G G80A	0.346
C14A U65G	0.688
C14G G76C	0.731
C14G G76U	0.985
C14G G76A	0.831
C14G A45C	0.434
C14G A45G	0.0875
C14U C41U	1.11

Variant	self-cleavage
C14U G17A	0.514
C14U G17C	0.156
C14U G17U	0.511
C14U A87G	1.07
C14U C18G	0.0875
C14G G53A	0.86
C14G C85G	0.415
C14G C85A	0.166
C14G G52U	0.391
C14A U27C	0.554
C14G U79A	0.266
C14U C86A	1.1
C14U C86U	0.875
C14U C86G	1.12
C14U A71U	1.1
C14U A71G	0.883
C14U A71C	0.831
C14U G39C	0.262
C14U G39A	0.284
C15A C32A	0.151
C15A C32G	0.107
C15A A70G	0.755
C15A A70U	0.723
C14G A83C	0

Variant	self-cleavage
C14G A83G	0.268
C14G G54C	0.277
C14G G54A	0.639
C14G G54U	0.776
C14U G38C	0.158
C14U G38A	0.0652
C15A C66G	0.688
C15A C66A	0.684
C15A C66U	0.909
C14U C85A	0.978
C14G C36A	0.192
C14G C19A	0
C14G C19G	0.0449
C14G C19U	0.0852
C14G G34U	0.0594
C14G G34C	0.138
C15A G28C	0.0449
C14U G76U	1.14
C15A A77U	0.302
C14U U20G	0.145
C14U U20A	0.145
C14A U79A	0.369
C14A U79C	0.173
C14A U79G	0.575

Variant	self-cleavage
C15A A42G	0.104
C15A A42C	0.122
C14G G55U	0.682
C14G G55A	0.59
C14G G55C	0.665
C14U A51U	1.14
C15A C64U	0.623
C15A C64A	0.689
C15A C64G	0.81
C14A G81A	0.911
C14A G81C	1.22
C14A G81U	1.15
C14G G28C	0.0415
C15A C22U	0.231
C15A C22G	0.113
C15A C22A	0.111
C14U A77C	0.249
C15A C58U	0.458
C14G C66A	0.665
C14G C61U	0.598
C14G C86A	1.03
C14G C86G	0.604
C15A C30G	0.138
C15A C30A	0.326

Variant	self-cleavage
C14G U47G	0.383
C14G U47C	0.604
C15A C61A	0.831
C14U U60C	1.11
C14U U60A	1.23
C14U U60G	0.772
C14U A70G	0.931
C14U A70C	1.02
C14U A70U	1.08
C15A G25C	0.0692
C14U G50A	1.01
C15A G34A	0.0723
C14U A78U	0.156
C14U A78G	0.831
C15A C84G	0.244
C14G A70U	0.529
C14G A70C	0.185
C14G A70G	0.831
C14U U79A	1.02
C14G C15A	0.312
C14G C15G	0
C14G C15U	0.111
C14A U47A	0.639
C14U C58G	1.17

Variant	self-cleavage
C14U C58U	0.991
C14U A83U	0.378
C14U A83G	0.54
C14G U23G	0.453
C14G U23C	0.712
C14G C48G	0.332
C14A U72A	0.332
C14A U72G	0.151
C14G G29A	0.107
C15A C18G	0.111
C15A C18A	0.115
C15A C63A	0.403
C15A G50A	0.527
C15A G50C	0.404
C15A G50U	0.674
C14G U60G	0.511
C14G G31U	0.0386
C14G G31A	0.324
C14G A51C	0.712
C15A C33G	0
C14G G67C	0.554
C14U G67U	1.08
C15A A71C	0.35
C15A A71G	0.443

Variant	self-cleavage
C14U C49A	1.37
C14U C49U	0.942
C14U A45C	0.646
C14A G68U	0.462
C14A G68C	0.388
C14G G59C	0.969
C15A A87U	0.746
C15A A87G	0.776
C15A A87C	0.654
C14G G82A	0.158
C14G G82U	0.196
C14G G82C	0.525
C14G U46A	0.237
C14G U46G	0.237
C14U G25A	0.115
C14U G25U	0.59
C14U U46C	1.03
C14U U65G	0.997
C14U U65C	0.997
C14U U65A	1.22
C14U A43U	0.443
C14U C36A	0.128
C14U C61U	1.22
C14U C61A	1.14

Variant	self-cleavage
C14U C75U	0.138
C14U C66A	0.877
C14U C66G	0.884
C14U U37G	0.199
C14G A43U	0.138
C14G A43C	0.0504
C14G C57G	0.782
C14G C57A	0.748
C14G C57U	0.665
C14G G81U	0.923
C14U C19U	0.0723
C14U C19G	0.0396
C15A G38U	0
C15A G38C	0.0831
C14G U37G	0
C15A C41A	0.655
C15A C41U	0.399
C15A C41G	0.285
C14G A71U	0.529
C14G A71G	0.712
C14G A71C	0.208
C15A A83U	0.0639
C15A A83G	0.284
C14A U69G	0.665

Variant	self-cleavage
C14G C24A	0.378
C14G A77C	0
C14G A77U	0
C14G A77G	0.415
C14A U23G	0.222
C14A G59U	1.05
C14A G59C	0.739
C14G G39A	0.277
C14G G39U	0.237
C14G G39C	0.217
C14A G73U	0.13
C14A G73A	0.383
C14G G40C	0
C14G G40A	0.623
C14G C33G	0
C14G C33U	0.32
C14U C44U	0.831
C14U U23C	1.47
C14U U23G	0.712
C14U C32G	0.0462
C14U C62U	0.923
C14U C62G	0.751
C14U C48A	0.928
C14U C48G	1.08

Variant	self-cleavage
C14G G50U	0.639
C14G G50A	1.15
C14U A42U	0.587
C14U A42C	0.232
C14G G38U	0.106
C15A C24U	0.0811
C15A C24A	0.378
C14A G80A	0.565
C14A G80U	0.273
C15A C75G	0.142
C14G	0.724
C14U	1.09
C14U U69A	1.02
C14G C44G	0.196
C14U C30G	0.0923
C14G G25C	0
C14G G25U	0.0504
C14A U60A	0.499
C14U G53C	1.07
C14U G53U	1.16
C14U G53A	1.11
C14U C84G	0.914
C14U C84A	0.643
C14U G73A	0.831

Variant	self-cleavage
C14U G73C	0.252
C14A U37A	0.0405
C14A U37G	0.104
C14U C63U	0.927
C14U C63G	0.831
C14U C63A	0.957
C15A C48U	0.54
C14G U72A	0.383
C14G U72G	0.312
C14G U72C	0.0978
C14U G82U	0.494
C14U G82C	0.415
C14U G68A	0.95
C14U G68U	1.04
C14A G82A	0.415
C14G C64A	0.511
C14G C64U	0.516
C15A G55C	0.482
C15A G55U	0.608
C14G A78C	0.108
C14G A78G	0.317
C14G C84U	0.415
